# According to the RNAGym collection of RNA variant scans (doi:10.7554/elife.80360):
# B1: CPEB3 Ribozyme (parent)
# chain: GGGGGCCACAGCAGAAGCGUUCACGUCGCGGCCCCUGUCAGAUUCUGGUGAAUCUGCGAAUUCUGCUGU
# Variants of: B1
# Test: self-cleavage, relative activity (ratio to wild type); higher = more cleavage; co-transcriptional
row,Variant,self-cleavage
1,C22A U67A,0.174
2,C22A U67G,0.27
3,C22G G28U,0.182
4,C22G G28C,0.18
5,C22U G58A,0.255
6,C22U G58C,0.223
7,C22U G58U,0.374
8,A23C,0.957
9,A23G,0.984
10,C22A U49A,0.195
11,C22A U49C,0.209
12,C22A U49G,0.0812
13,A23C A42G,0.901
14,C22U G41C,0.117
15,C22U G41U,0.164
16,C22U G41A,0.185
17,C22G G25C,0.248
18,C22G G25U,0.146
19,C22G G25A,0.177
20,C22U G30C,0.181
21,C22G G68U,0.197
22,C22G C57G,0.205
23,C22U A60U,0.137
24,C22U A60C,0.158

row,Variant,self-cleavage
1,C22U A60G,0.223
2,C22U C54A,0.19
3,C22G U26G,0.163
4,C22U G31C,0.103
5,C22U G31A,0.183
6,C22U G31U,0.116
7,C22A U62G,0.112
8,C22U C24G,0.169
9,C22U C24U,0.105
10,C22G G37U,0.527
11,C22U C29U,0.14
12,C22U C29G,0.152
13,C22U U43A,0.217
14,C22U U43G,0.222
15,C22G C63A,0.141
16,C22G C63U,0.123
17,C22G C63G,0.209
18,A23C U69A,0.959
19,A23C U69C,1.04
20,C22A U55A,0.234
21,C22A U55C,0.113
22,A23C U46A,0.923
23,C22U C33G,0.18
24,C22U C33A,0.176

row,Variant,self-cleavage
1,C22U C33U,0.315
2,A23C G65C,0.535
3,A23C G65U,0.674
4,A23C G65A,0.764
5,A23C A60G,0.828
6,A23C A60C,0.327
7,C22U A59C,0.188
8,C22U A59U,0.201
9,C22G U64C,0.205
10,C22G U64A,0.202
11,C22A U69G,0.301
12,C22A U69A,0.189
13,C22A U69C,0.291
14,A23C U55C,0.891
15,A23C G31C,0.186
16,A23C G31U,0.528
17,C22G C27A,0.149
18,C22G C27U,0.142
19,C22U U69C,0.601
20,C22U U69A,0.384
21,C22U U69G,0.462
22,C22G U38C,0.232
23,C22G U38G,0.177
24,C22G U38A,0.165

row,Variant,self-cleavage
1,C22U G28U,0.148
2,C22U G28A,0.117
3,C22U U46A,0.29
4,C22G U62A,0.194
5,C22G U62G,0.162
6,C22G U62C,0.117
7,C22U C35U,0.183
8,C22U C35A,0.178
9,C22G G41C,0.105
10,C22G G41A,0.147
11,C22G G41U,0.178
12,A23C G25A,0.203
13,C22U U55G,0.169
14,C22U U55C,0.157
15,C22U U55A,0.182
16,A23G C29A,0.401
17,C22U C45U,0.318
18,C22U C45A,0.33
19,C22U C45G,0.25
20,A23C G58C,0.891
21,C22G U55A,0.116
22,C22G U55G,0.14
23,C22G U55C,0.198
24,A23G A60U,0.385

row,Variant,self-cleavage
1,A23G A60G,0.866
2,A23G A60C,0.249
3,A23C U44C,0.874
4,C22G A59C,0.151
5,C22G A59G,0.204
6,C22G A59U,0.246
7,A23C U36C,0.679
8,A23C U43A,0.771
9,A23C U43G,0.82
10,C22U U61C,0.134
11,C22U U61G,0.264
12,C22A U64A,0.176
13,C22A U64G,0.0937
14,C22A U64C,0.168
15,C22U U26A,0.2
16,A23C C29A,0.603
17,A23C C29U,0.389
18,C22G U61G,0.257
19,C22G U61C,0.167
20,C22U C57A,0.166
21,C22G U69C,0.374
22,C22U U62A,0.167
23,C22U U62G,0.207
24,C22G C54G,0.125

row,Variant,self-cleavage
1,C22G C54U,0.204
2,C22G C54A,0.121
3,A23C C33U,0.937
4,A23C C33G,0.439
5,C22G U36A,0.152
6,C22G U36G,0.143
7,C22G U36C,0.236
8,A23C U61A,0.832
9,A23C U61G,0.855
10,C22G U67G,0.121
11,C22G U67C,0.175
12,C22G U67A,0.242
13,A23C C63G,0.573
14,A23C C63A,0.738
15,A23C G28A,0.206
16,A23C G28C,0.183
17,C22U C34G,0.202
18,C22U C34A,0.22
19,C22U C34U,0.332
20,A23G A40C,0.328
21,A23G A40G,0.992
22,A23C C66U,0.94
23,A23C C66A,0.908
24,C22G G58C,0.161

row,Variant,self-cleavage
1,C22G G58U,0.202
2,A23C G30A,0.743
3,A23C G30C,0.58
4,C22G G47C,0.122
5,C22G G47U,0.133
6,C22G G47A,0.149
7,A23C C24A,0.785
8,A23C C24U,0.52
9,A23C C24G,0.414
10,C22G C33U,0.264
11,C22G C33A,0.195
12,A23G C27A,0.303
13,A23G C27U,0.222
14,A23C C32A,0.59
15,A23C C32G,0.329
16,C22G G30A,0.219
17,C22G G30U,0.162
18,C22G G30C,0.166
19,C22U C63G,0.156
20,C22U C63A,0.178
21,C22U C63U,0.265
22,C22G C32A,0.117
23,C22G C32G,0.139
